Target: rat AChEt subunit (rat) (UniProt P37136)
Test: cell-based or functional assay

Chain of rat AChEt subunit (rat) (P37136 32-614 limits assumed): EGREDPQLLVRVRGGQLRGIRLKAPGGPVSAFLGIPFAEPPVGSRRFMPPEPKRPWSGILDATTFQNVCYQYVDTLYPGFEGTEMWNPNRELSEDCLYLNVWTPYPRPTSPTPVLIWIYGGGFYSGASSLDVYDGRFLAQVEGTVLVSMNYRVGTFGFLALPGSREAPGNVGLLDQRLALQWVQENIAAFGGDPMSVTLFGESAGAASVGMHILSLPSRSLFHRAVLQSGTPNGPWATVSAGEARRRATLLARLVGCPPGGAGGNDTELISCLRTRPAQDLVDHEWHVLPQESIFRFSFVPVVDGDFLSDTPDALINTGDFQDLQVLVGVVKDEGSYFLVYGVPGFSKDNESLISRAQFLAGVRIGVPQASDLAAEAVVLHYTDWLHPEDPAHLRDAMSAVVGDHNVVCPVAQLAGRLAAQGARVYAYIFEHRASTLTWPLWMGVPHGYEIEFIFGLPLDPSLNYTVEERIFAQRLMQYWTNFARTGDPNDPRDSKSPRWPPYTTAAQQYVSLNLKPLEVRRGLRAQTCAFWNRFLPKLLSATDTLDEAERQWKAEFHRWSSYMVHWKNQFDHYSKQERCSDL

cell-associated AChE activity / tetramerization (velocity sedimentation, COS cells): 100 % increase
Substance: ColQ PRAD-GPI: PRAD encoding N-terminal domain of ColQ (Qn) linked to the C-terminal domain of the GPI-anchored AChE form
